Source: paper PMC6415948

How the values were obtained:
Assay in all cases: SPR
[1] = molecular target: Human IgG1 Fc, G0 N-glycan (agalactosylated, afucosylated) (human)
[2] = molecular target: Human IgG1 Fc, G0F N-glycan (agalactosylated, core-fucosylated) (human)
[3] = molecular target: Human IgG1 Fc, G2F N-glycan (digalactosylated, core-fucosylated) (human)
[4] = molecular target: Human IgG1 Fc, fucosylated, mixed N-glycans (predominantly G0F/G1F/G2F) (human)
[5] = molecular target: Human IgG1 Fc, afucosylated, mixed N-glycans (G0, G1 and G2) (human)

Substance	Kd [1]	Kd [2]	Kd [3]	Kd [4]	Kd [5]
CD16a N38Q/N74Q/N169Q following treatment with Endoglycosidase F1 (N-glycans truncated to a single (1)GlcNAc) (receptor)	1.3 nM	2.9 nM	1.6 nM	–	–
CD16a (Fc γ receptor IIIa), wild type, Man5 glycoform	2.4 nM	18 nM	9.9 nM	57 nM	2.5 nM
CD16a, wild type, following treatment with Endoglycosidase F1 (N-glycans truncated to a single (1)GlcNAc) (receptor)	1.7 nM	3.7 nM	2 nM	–	–
CD16a N38Q/N45Q/N74Q/N169Q, Man5 glycoform (receptor)	–	360 nM	–	–	–
CD16a, wild type, complex-type glycoform (receptor)	–	–	–	245 nM	38 nM
CD16a, wild type, Man9 glycoform (receptor)	–	–	–	64 nM	4 nM
